The values below are quoted from earlier work in paper PMC9691366, “Modulating the pharmacokinetic profile of Actinium-225-labeled macropa-derived radioconjugates by dual targeting of PSMA and albumin” (Theranostics, 2022).

The data set concerns tumor. The settings on record: in vivo, 24 h; cited from earlier work.

Turning to [^177Lu]Lu-PSMA-617, the tumor uptake is 11.20 ± 4.17 %ID/g.
